Assay results reported in patent publication US20050064433.

System: T1, SbfI restriction endonuclease (R.SbfI) (Streptomyces species Bf-61)
T1 sequence: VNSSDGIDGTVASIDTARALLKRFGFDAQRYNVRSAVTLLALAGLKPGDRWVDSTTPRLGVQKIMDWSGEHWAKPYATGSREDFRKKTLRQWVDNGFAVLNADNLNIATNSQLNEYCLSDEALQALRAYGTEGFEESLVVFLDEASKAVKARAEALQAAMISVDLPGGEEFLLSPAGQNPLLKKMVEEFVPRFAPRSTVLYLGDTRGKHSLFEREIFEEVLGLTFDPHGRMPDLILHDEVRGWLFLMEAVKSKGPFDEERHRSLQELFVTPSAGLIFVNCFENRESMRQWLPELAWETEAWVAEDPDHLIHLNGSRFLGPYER
Assay: cleavage_in_vitro
Settings: recombinant cell extract, serial dilutions 1x to 1/64; yield more than about 10^5 units per gram wet E. coli cells; recognition sequence not given

Q: “lambda DNA (printed as "I DNA") restriction substrate” was tested. Which activity (U/g wet cells) did it give?
A: 100000
